Assay results reported in publication PMC7473711, “Characterization of the different oligomeric states of the DAN family antagonists SOSTDC1 and SOST” (Biochemical Journal, 2020).

Key:
[1] = target: the molecule itself; test: SEC; analytical SEC, Superdex S75 HR 10/300, room temperature, 0.5 ml/min, 20 mM HEPES, 1 M NaCl, pH 7.5; 100-150 µg protein loaded; self-association
[2] = target: the molecule itself; test: SEC; protein that was monomeric at low pH (pH 3.0) neutralised to pH 7.5 and run again on SEC

B1: chicken SOSTDC1 (Sclerostin domain containing protein 1), residues 23-206 (natural protein, UniProt Q6VYA3 23-206, looked up)
chain: AFKNDATEILYSHVVKPAPASPSSNSTLNQARNGGRHYAGTGSDRNNRVQVGCRELRSTKYISDGQCTSINPLKELVCAGECLPLPLLPNWIGGGYGTKYWSRRSSQEWRCVNDKTRTQRIQLQCQDGSIRTYKITVVTACKCKRYTRQHNESSHNFEGTSQAKPVQHHKERKRASKSSKHSTS
notes: SOSTDC1, chicken, amino acid residues 23-206, cloned into pET21a from pCS2-Flag-cSOSTDC1; 20.7 kDa; The vector is pET21a; also called cSOSTDC1; Wise
stoichiometry N [1]: 2

B2: human SOSTDC1 (Sclerostin domain containing protein 1) (natural protein, UniProt Q6X4U4 24-206, looked up)
chain: FKNDATEILYSHVVKPVPAHPSSNSTLNQARNGGRHFSNTGLDRNTRVQVGCRELRSTKYISDGQCTSISPLKELVCAGECLPLPVLPNWIGGGYGTKYWSRRSSQEWRCVNDKTRTQRIQLQCQDGSTRTYKITVVTACKCKRYTRQHNESSHNFESMSPAKPVQHHRERKRASKSSKHSMS
modifications: native glycosylation
notes: signal peptide in the construct; SOSTDC1, human, full-length gene made by gene synthesis and codon optimised (GenScript), in pcDNA4 (pCDNA4-hSOSTDC1-PP-Myc-His); secreted into conditioned medium; after cleavage the residues LEVLFQ probably stay on the C-terminus (surmised); The secreted protein probably lacks its signal peptide (surmised); also called hSOSTDC1; Wise; source: Expi293F, transiently …
stoichiometry N [1]: 2

B3: Gremlin2 (natural protein)
chain: RKNRPAGAIPSPYKDGSSNNSERWHHQIKEVLASSQEALVVTERKYLKSDWCKTQPLRQTVSEEGCRSRTILNRFCYGQCNSFYIPRHVKKEEDSFQSCAFCKPQRVTSVIVELECPGLDPPFRIKKIQKVKHCRCMSVNLSDSDKQ
notes: Gremlin2 (Grem2); also called Grem2
stoichiometry N [2]: 2
